T1: EspG5 (M. tuberculosis), crystallization construct (M. tuberculosis H37Rv, UniProt O53943 1-300)
T1 sequence: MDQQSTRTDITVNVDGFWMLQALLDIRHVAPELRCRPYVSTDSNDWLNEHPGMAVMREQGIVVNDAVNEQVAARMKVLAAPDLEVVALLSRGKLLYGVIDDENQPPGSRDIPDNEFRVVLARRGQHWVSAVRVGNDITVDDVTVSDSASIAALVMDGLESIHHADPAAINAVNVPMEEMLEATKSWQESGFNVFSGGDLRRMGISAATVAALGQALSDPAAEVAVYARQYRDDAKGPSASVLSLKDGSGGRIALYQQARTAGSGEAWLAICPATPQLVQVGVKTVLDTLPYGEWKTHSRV

T2: EspG5 (M. tuberculosis), from His6-SUMO3-EspG5, tag cleaved (M. tuberculosis, UniProt O53943 1-300)
T2 sequence: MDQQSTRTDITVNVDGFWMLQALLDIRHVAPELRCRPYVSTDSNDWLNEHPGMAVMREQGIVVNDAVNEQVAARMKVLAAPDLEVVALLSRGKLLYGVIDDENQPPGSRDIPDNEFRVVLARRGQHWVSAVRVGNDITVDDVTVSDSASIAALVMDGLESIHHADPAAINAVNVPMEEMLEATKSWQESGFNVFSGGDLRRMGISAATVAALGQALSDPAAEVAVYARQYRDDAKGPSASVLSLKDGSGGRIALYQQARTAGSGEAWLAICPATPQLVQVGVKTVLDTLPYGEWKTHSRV


Assays:
[1] = molecular target: T1, EspG5 (M. tuberculosis), …; test: crystal structure
[2] = molecular target: T2, EspG5 (M. tuberculosis), from …; test: ITC

Row | Binder | binding result [1] | Kd [2] [nM]
1 | PPE41 (M. tuberculosis), chain of the crystallized complex (natural protein) MHFEAYPPEVNSANIYAGPGPDSMLAAARAWRSLDVEMTAVQRSFNRTLLSLMDAWAGPVVMQLMEAAKPFVRWLTDLCVQLSEVERQIHEIVRAYEWAHHDMVPLAQIYNNRAERQILIDNNALGQFTAQIADLDQEYDDFWDEDGEVMRDYRLRVSDALSKLTPWKAPPPIAHSTVLVAPVSPSTASSRTDT | binds | –
2 | His6-PE25–PPE41 heterodimer (M. tuberculosis), wild type (complex) chain 1: MSFVITNPEALTVAATEVRRIRDRAIQSDAQVAPMTTAVRPPAADLVSEKAATFLVEYARKYRQTIAAAAVVLEEFAHALTTGADKYATAEADNIKTFS chain 2: MHFEAYPPEVNSANIYAGPGPDSMLAAARAWRSLDVEMTAVQRSFNRTLLSLMDAWAGPVVMQLMEAAKPFVRWLTDLCVQLSEVERQIHEIVRAYEWAHHDMVPLAQIYNNRAERQILIDNNALGQFTAQIADLDQEYDDFWDEDGEVMRDYRLRVSDALSKLTPWKAPPPIAHSTVLVAPVSPSTASSRTDT | – | 48.1
